The values below come from publication PMC12473165 (2025).

For the assay, the target named is LysdesArg9BK (Homo sapiens, 3H label on peptide). The assay is described as follows: radioligand binding on HEK293 cells.

B1: B1R (protein)
chain: MASSWPPLELQSSNQSQLFPQNATACDNAPEAWDLLHRVLPTFIISICFFGLLGNLFVLLVFLLPRRQLNVAEIYLANLAASDLVFVLGLPFWAENIWNQFNWPFGALLCRVINGVIKANLFISIFLVVAISQDRYRVLVHPMASRRQQRRRQARVTCVLIWVVGGLLSIPTFLLRSIQAVPDLNITACILLLPHEAWHFARIVELNILGFLLPLAAIVFFNYHILASLRTREEVSRTRCGGRKDSKTTALILTLVVAFLVCWAPYHFFAFLEFLFQVQAVRGCFWEDFIDLGLQLANFFAFTNSSLNPVIYVFVGRLFRTKVWELYKQCTPKSLAPISSSHRKEIFQLFWRN
Molecule B1 returned a Kd of 1.3 nM. That is a single-digit nanomolar value.
